# Assay results taken from article PMC10786891, “Massively parallel profiling of RNA-targeting CRISPR-Cas13d”.
# Positions count from the first letter of the chain named. Names and notes keep the numbering of the source.
# T1: EsCas13d, nuclease-dead (Eubacterium siraeum, UniProt B0MS50, R295A;H300A;R849A;H854A)
# T1 sequence: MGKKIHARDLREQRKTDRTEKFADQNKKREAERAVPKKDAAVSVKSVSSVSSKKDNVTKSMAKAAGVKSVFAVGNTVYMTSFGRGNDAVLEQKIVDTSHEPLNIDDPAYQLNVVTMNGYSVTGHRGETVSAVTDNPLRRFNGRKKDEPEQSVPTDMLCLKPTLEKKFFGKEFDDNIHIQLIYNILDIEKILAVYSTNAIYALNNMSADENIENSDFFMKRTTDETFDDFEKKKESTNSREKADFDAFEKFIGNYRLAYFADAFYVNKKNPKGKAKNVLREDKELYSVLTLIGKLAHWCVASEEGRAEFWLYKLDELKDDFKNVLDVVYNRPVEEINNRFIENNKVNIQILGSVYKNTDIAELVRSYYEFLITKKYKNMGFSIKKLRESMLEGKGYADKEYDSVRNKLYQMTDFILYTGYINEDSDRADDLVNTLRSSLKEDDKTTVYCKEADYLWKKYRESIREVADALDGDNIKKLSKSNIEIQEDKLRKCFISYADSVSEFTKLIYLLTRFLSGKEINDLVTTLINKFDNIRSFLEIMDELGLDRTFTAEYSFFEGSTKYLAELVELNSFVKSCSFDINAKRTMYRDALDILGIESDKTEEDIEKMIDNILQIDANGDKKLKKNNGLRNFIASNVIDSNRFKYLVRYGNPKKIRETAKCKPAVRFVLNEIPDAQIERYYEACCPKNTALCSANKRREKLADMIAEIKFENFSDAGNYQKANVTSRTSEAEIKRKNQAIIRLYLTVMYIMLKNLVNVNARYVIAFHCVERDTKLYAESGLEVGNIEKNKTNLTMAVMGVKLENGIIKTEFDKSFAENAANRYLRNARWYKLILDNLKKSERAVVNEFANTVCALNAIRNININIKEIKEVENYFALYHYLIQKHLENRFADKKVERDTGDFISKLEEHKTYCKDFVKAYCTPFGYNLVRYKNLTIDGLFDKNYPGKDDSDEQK
# B1: target 1 A9U,C22U (mixed)
# RNA 1: CACCCGUGCAAAAAUGCAGGGGUCUAAAACUGAGCGGAUAACCUCUCUAUGG
# RNA 2: GGGAAUGGAUCCACAUCUACGAAUUCGUAUCAUAGAGAGGUUUUCCGCUCACCGAGAUCGGAAGAGCACACGU
# B2: target 1 C21A,C22U (mixed)
# RNA 1: B1 RNA 1
# RNA 2: B1 RNA 2 with C31A, U43A
# B3: target 3 insU 3' of 5 (mixed)
# RNA 1: CACCCGUGCAAAAUUGCAGGGGUCUAAAACGACCUGAAUAUUUCAGAUCAAA
# RNA 2: GGGAAUGGAUCCACAUCUACGAAUUCGUUUUUGAUCUGAAAUAUUCAUGGUCUGCAGAUCGGAAGAGCACACGU
# B4: target 3 insU 3' of 6,insA 3' of 3 (mixed)
# RNA 1: B3 RNA 1
# RNA 2: GGGAAUGGAUCCACAUCUACGAAUUCGUUUUUGAUCUGAAAUAUUCUAGGAUCUGCAGAUCGGAAGAGCACACGU
# B5: target 3 G4A,A9G (mixed)
# RNA 1: B3 RNA 1
# RNA 2: GGGAAUGGAUCCACAUCUACGAAUUCGUUUUUGAUCUGAAAUGUUCAAGUCUGCAGAUCGGAAGAGCACACGU
# B6: target 3 insU 3' of 5,insU 3' of 4 (mixed)
# RNA 1: B3 RNA 1
# RNA 2: B4 RNA 2 with U47A, A48U, G50U, A51G
# B7: target 3 insA 3' of 15,insC 3' of 11 (mixed)
# RNA 1: B3 RNA 1
# RNA 2: B4 RNA 2 with G38A, A39G, U42A, A43C, U45A, C46U, A48C, G49A, A51G
# B8: target 3 G19U,U20A (mixed)
# RNA 1: B3 RNA 1
# RNA 2: B5 RNA 2 with U32A, G33U, G43A, A48G
# B9: target 3 C1U,U7C (mixed)
# RNA 1: B3 RNA 1
# RNA 2: B5 RNA 2 with G43A, U45C, A48G, C51U
# B10: target 3 del3,del4 (mixed)
# RNA 1: B3 RNA 1
# RNA 2: GGGAAUGGAUCCACAUCUACGAAUUCGUUUUUGAUCUGAAAUAUUCAUCUGCAGAUCGGAAGAGCACACGU
# B11: target 3 C6G,U8A (mixed)
# RNA 1: B3 RNA 1
# RNA 2: B5 RNA 2 with G43A, U44A, C46G, A48G
# B12: target 3 insU 3' of 22,insU 3' of 6 (mixed)
# RNA 1: B3 RNA 1
# RNA 2: GGGAAUGGAUCCACAUCUACGAAUUCGUUUUUUGAUCUGAAAUAUUCUAGGUCUGCAGAUCGGAAGAGCACACGU
# B13: target 3 insA 3' of 8,insC 3' of 5 (mixed)
# RNA 1: B3 RNA 1
# RNA 2: B4 RNA 2 with U45A, C46U, U47C, G49C, A51G
# B14: target 3 insA 3' of 6,insU 3' of 1 (mixed)
# RNA 1: B3 RNA 1
# RNA 2: B4 RNA 2 with U47A, A51U, U52C, C53U
# B15: target 3 insA 3' of 22,insU 3' of 3 (mixed)
# RNA 1: B3 RNA 1
# RNA 2: B12 RNA 2 with U31A, U48A, A49G, G51U
# B16: target 3 A5U,A18G (mixed)
# RNA 1: B3 RNA 1
# RNA 2: B5 RNA 2 with A34G, G43A, A47U, A48G
# B17: target 3 G4U,A12U (mixed)
# RNA 1: B3 RNA 1
# RNA 2: B5 RNA 2 with A40U, G43A, A48U
# B18: target 3 insA 3' of 14,insU 3' of 4 (mixed)
# RNA 1: B3 RNA 1
# RNA 2: B4 RNA 2 with U42A, A43U, U44A, C46U, U47C, G50U, A51G
# B19: target 3 U2C,G4C (mixed)
# RNA 1: B3 RNA 1
# RNA 2: B5 RNA 2 with G43A, A48C, U50C
# B20: target 3 A5C,U22C (mixed)
# RNA 1: B3 RNA 1
# RNA 2: B5 RNA 2 with U30C, G43A, A47C, A48G
# B21: target 3 G3U,U8C (mixed)
# RNA 1: B3 RNA 1
# RNA 2: B5 RNA 2 with G43A, U44C, A48G, G49U
# B22: target 3 G3U,A12G (mixed)
# RNA 1: B3 RNA 1
# RNA 2: B5 RNA 2 with A40G, G43A, A48G, G49U
# B23: target 3 A5U,U22C (mixed)
# RNA 1: B3 RNA 1
# RNA 2: B5 RNA 2 with U30C, G43A, A47U, A48G
# B24: target 3 G4C,C6A (mixed)
# RNA 1: B3 RNA 1
# RNA 2: B5 RNA 2 with G43A, C46A, A48C
# B25: target 3 A5G,U8A (mixed)
# RNA 1: B3 RNA 1
# RNA 2: B5 RNA 2 with G43A, U44A, A47G, A48G
# B26: target 3 insC 3' of 7,insU 3' of 3 (mixed)
# RNA 1: B3 RNA 1
# RNA 2: B4 RNA 2 with U47C, A51U
# B27: target 3 insU 3' of 13,insA 3' of 6 (mixed)
# RNA 1: B3 RNA 1
# RNA 2: B4 RNA 2 with A40U, U42A, A43U, U44A, C46U, U47C, G49A, A51G
# B28: target 3 insA 3' of 22,insU 3' of 5 (mixed)
# RNA 1: B3 RNA 1
# RNA 2: B12 RNA 2 with U31A, U48A, A49U
# Target: T1, EsCas13d, nuclease-dead
# Test: crRNA (strand 1, pre-loaded); Mg2+; 40 mM Tris-HCl pH 7.5, 150 mM NaCl, 6 mM MgCl2, 1 mM DTT, 0.1% Tween-20, 0.2 mg/ml BSA; 25 C; 10 min per concentration, then washed
# Conditions: tags: His6-TwinStrep-SUMO cleaved; N-terminal SNAP kept (SNAP-Surface 488); label: 3' end held by stalled T7 RNA polymerase
row,Binder,Kd [nM]
1,B1,24 ± 4
2,B2,45 ± 7
3,B3,6.55 ± 0.65
4,B4,11.2 ± 1.3
5,B5,52.5 ± 7
6,B6,2 ± 0.23
7,B7,~90
8,B8,90 ± 27
9,B9,58.5 ± 16
10,B10,13.9 ± 1.4
11,B11,81.5 ± 10
12,B12,27.5 ± 3.7
13,B13,51 ± 5
14,B14,31.9 ± 5.8
15,B15,23.1 ± 3.65
16,B16,117 ± 25
17,B17,52 ± 13.5
18,B18,43.5 ± 14.5
19,B19,18.4 ± 2.75
20,B20,84 ± 31
21,B21,103 ± 17.5
22,B22,86 ± 15
23,B23,70.5 ± 20
24,B24,26.6 ± 1.85
25,B25,80.5 ± 15
26,B26,49.5 ± 10
27,B27,99 ± 25
28,B28,11.1 ± 1.15
